The target in the assay is Human complement component C5 (human) (UniProt P01031). Nature of the assay: cell-based or functional assay.

Take “Recombinant SET1 (SSL7), allele from Staphylococcus aureus clinical isolate GL1”: the SET1 concentration at maximum survival of E. coli in human serum came out at 2.1 nM and the surviving E. coli cells in human serum, maximum level amounted to 14%.
